B1: human NKG2D (receptor)
chain: IPLTESYCGPCPKNWICYKNNCYQFFDESKNWYESQASCMSQNASLLKVYSKEDQDLLKLVKSYHWMGLVHIPTNGSWQWEDGSILSPNLLTIIEMQKGDCALYASSFKGYIENCSTPNTYICMQRTV
B2: KYK-2 antibody (antibody, V domains shown)
VH: QVQLVESGGGLVKPGGSLRLSCAASGFTFSSYGMHWVRQAPGKGLEWVAFIRYDGSNKYYADSVKGRFTISRDNSKNTLYLQMNSLRAEDTAVYYCAKDRGLGDGTYFDYWGQGTTVTVSS
VL: QSALTQPASVSGSPGQSITISCSGSSSNIGNNAVNWYQQLPGKAPKLLIYYDDLLPSGVSDRFSGSKSGTSAFLAISGLQSEDEADYYCAAWDDSLNGPVFGGGTKLTVL
B3: KYK-1 antibody (antibody, V domains shown)
VH: EVQLVESGGGVVQPGGSLRLSCAASGFTFSSYGMHWVRQAPGKGLEWVAFIRYDGSNKYYADSVKGRFTISRDNSKNTLYLQMNSLRAEDTAVYYCAKDRFGYYLDYWGQGTLVTVSS
VL: QPVLTQPSSVSVAPGETARIPCGGDDIETKSVHWYQQKPGQAPVLVIYDDDDRPSGIPERFFGSNSGNTATLSISRVEAGDEADYYCQVWDDNNDEWVFGGGTQLTVL

Key:
[1] = target: OMCP (WT OMCPBR, cowpox virus Brighton Red) (cowpox virus (Brighton Red strain)); assay: printed as 'binding coefficients'; method not stated
human NKG2D = target: B1; assay: as above

| Binder | Kd [1] | Kd (human NKG2D) |
| --- | --- | --- |
| B1 | 0.1 nM |  |
| B2 |  | 6 nM |
| B3 |  | 27 nM |

From US20190119345A1 (published 2019)
